Experimental data as given in publication PMC2064962, “Inhibition of Protein Aggregation: Supramolecular Assemblies of Arginine Hold the Key” (PLoS ONE, 2007).

Target: the molecule itself
Assay: SEC; SMART Superdex G75 column, 0.02 M sodium phosphate buffer pH 7.4 (PB), with or without 0.2 M arginine; 10 µg peptide in 50 µl, flow 100 µl/min, monitored at 257 nm; self-association, monomer and tetramer seen

B1: Mouse Alzheimer's amyloid beta 1-42 peptide (peptide)
peptide: DAEFGHDSGFEVRHQKLVFFAEDVGSNKGAIIGLMVGGVVIA
notes: Amyloid beta 1-42, the cut product of mouse amyloid precursor protein (APP); numbers count on: the Aβ peptide; it was removed; also called Aβ_(1-42); mouse Aβ_(1-42); source: synthetic peptide (Fmoc chemistry, purified on ProRPC C-18); dissolved in 0.01 M NaOH before use
B1 was tested, and the “stoichiometry N” value was 4.
